According to paper PMC10368638, “Differential CaKAN3-CaHSF8 associations underlie distinct immune and heat responses under high temperature and high humidity conditions”:

B1: 3x AACAA probe (dsDNA)
DNA 1: AACAAAACAAAACAA
DNA 2: TTGTTTTGTTTTGTT
B2: 3x AACAAm probe (3xAAAAA) (dsDNA)
DNA 1: AAAAAAAAAAAAAAA
DNA 2: TTTTTTTTTTTTTTT

Target: CaKAN3-GST (Capsicum annuum? (pepper), UniProt A0A2G2Z1N1 1-250)
Experiment: EMSA; EMSA: 20 uL; 5x binding buffer printed as 1 M Tris-HCl pH 7.5, 5 M NaCl, 1 M KCl, 1 M MgCl2, 0.5 M EDTA pH 8.0, 10 mg/mL BSA (apparently stock concentrations)
Details: protein: recombinant; tags: GST (pDEST-15); label: Cy5; blunt

CaKAN3-GST, sequence (A0A2G2Z1N1 entry or part of it): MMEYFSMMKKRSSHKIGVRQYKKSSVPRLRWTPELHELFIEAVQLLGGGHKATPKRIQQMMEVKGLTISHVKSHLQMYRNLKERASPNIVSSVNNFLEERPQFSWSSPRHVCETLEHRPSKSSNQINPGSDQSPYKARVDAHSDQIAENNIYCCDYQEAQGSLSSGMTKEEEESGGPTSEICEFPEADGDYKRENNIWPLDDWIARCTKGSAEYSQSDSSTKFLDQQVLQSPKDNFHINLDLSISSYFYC

Binder | binding result
B1 | binds
B2 | no binding
